Test results reported in patent US20170355769A1 (AbbVie / Abbott, published 2017).

Experiments:
[1] = target: T1, Human B7-H3-ECD (His tag) (human, UniProt Q5ZPR3 29-461); test: SPR Biacore, naked mAb
T1 construct: SPR analyte; also called huB7-H3; soluble ECD of human B7-H3
T1 sequence: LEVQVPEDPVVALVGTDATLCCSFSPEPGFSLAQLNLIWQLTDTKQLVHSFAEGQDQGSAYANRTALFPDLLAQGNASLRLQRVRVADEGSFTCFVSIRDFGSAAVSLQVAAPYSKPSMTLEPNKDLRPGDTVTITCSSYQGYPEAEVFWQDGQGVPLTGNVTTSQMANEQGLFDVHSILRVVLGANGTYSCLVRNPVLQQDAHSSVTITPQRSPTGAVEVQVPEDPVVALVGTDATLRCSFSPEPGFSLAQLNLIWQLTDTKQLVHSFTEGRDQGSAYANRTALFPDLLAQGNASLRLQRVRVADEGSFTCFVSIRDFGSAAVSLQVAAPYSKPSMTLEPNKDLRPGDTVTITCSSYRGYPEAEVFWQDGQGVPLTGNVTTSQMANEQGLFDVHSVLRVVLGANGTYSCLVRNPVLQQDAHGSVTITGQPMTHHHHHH
Excerpt: Biacore T200 SPR instruments were used to measure the binding kinetics of human B7-H3 (analyte) binding to various mAbs (ligands). The assay format was Fc-based capture via immobilized anti-mouse (Fc) (Pierce 31170) or immobilized anti-human (Fc) (Pierce 31125). A standard amine coupling protocol was employed to immobilize the capture reagents via primary amines to the carboxy-methyl (CM) dextran surface of CM5 sensorchips (Biacore); capture antibodies were coupled to a level of approximately 5000RU. For binding kinetic measurements the assay buffer was HBS-EP+ (Biacore): 10 mM Hepes, pH7.4, 150 mM NaCl, 3 mM EDTA, 0.05% polysorbate 20. During the assay, all measurements were referenced against the capture surface alone. Each assay cycle consisted of the following steps: 1) Capture of ligand to approximately 50RU; 2) Analyte injection over both reference and test surface, 240 μL at 80 μL/min, after which the dissociation was monitored for 900 seconds at 80 μL/min; 3) Regeneration of capture surface with low pH glycine. […] Data were processed and fit to a 1:1 binding model using Biacore T200 Evaluation Software to determine the binding kinetic rate constants, kₐ (on-rate) and kd (off-rate), and the equilibrium dissociation constant (affinity, KD). […]

Human full length B7-H3 = target: T2, Human full length B7-H3 (human, UniProt Q5ZPR3 29-534); test: FACS, NCI-H1650 cells
T2 construct: On 3T12 fibroblasts expressing full length human B7-H3 or on NCI-H1650 cells; signal peptide residues 1-28 stated; also called huB7-H3; CD276
T2 sequence: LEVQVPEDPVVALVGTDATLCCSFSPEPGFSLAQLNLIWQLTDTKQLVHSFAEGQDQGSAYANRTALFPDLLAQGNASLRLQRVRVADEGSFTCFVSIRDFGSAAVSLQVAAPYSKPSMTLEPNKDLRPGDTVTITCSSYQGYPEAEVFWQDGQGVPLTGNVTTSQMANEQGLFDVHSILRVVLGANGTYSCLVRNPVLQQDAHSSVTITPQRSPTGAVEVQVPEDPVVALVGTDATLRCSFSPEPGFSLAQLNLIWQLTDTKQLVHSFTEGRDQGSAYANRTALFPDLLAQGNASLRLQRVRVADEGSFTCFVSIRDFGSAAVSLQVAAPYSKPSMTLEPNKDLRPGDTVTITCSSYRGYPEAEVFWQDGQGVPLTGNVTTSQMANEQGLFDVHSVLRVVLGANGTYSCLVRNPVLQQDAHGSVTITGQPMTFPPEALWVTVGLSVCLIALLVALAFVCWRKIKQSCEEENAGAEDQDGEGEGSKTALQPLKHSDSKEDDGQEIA
Protocol: To generate purified chimeric antibodies, expression vectors were transiently transfected into HEK293 6E suspension cell cultures in a ratio of 60% to 40% light to heavy chain construct. 1 mg/ml of polyethylenimine (PEI) or 2.6 μL/mL of Expifectamine was used to transfect the cells. Cell supernatants were harvested after five days in shaking flasks, spun down to pellet cells, and filtered through 0.22 μm filters to separate IgG from culture contaminants. Antibody-containing supernatants were purified on Akta Pure using protein A mAb SelectSure. Columns were equilibrated in PBS pH 7.4, supernatants were then passed through the column and a wash was performed with PBS pH 7.4. IgG were eluted with 0.1 M acetic acid pH 3.5 and collected in several aliquots. Fractions containing IgG were pooled and dialyzed in PBS overnight at 4° C.
Cells were harvested from flasks when approximately 80% confluent using Gibco® Cell Dissociation Buffer. Cells were washed once in PBS/1% FBS (FACS buffer) then resuspended at 2.5×10⁶ cells/mL in FACS buffer. 100 μL of cells/well were added to a round bottom 96-well plate. 10 μL of a 10× concentration of mAb/ADC (final concentrations are indicated the figures). Wells were washed twice with FACS buffer and resuspended in 50 μL of secondary Ab (AlexaFluor 488) diluted in FACS buffer. The plate was incubated at 4° C. for one hour and washed twice with FACS buffer. Cells were resuspended in 100 μL of PBS/1% formaldehyde and analyzed on a Becton Dickinson LSRII flow cytometer. Data was analyzed using WinList flow cytometry analysis software.

B1: chAb13 (antibody, IgG1, V domains shown)
VH: DVQLQESGPDLVKPSQSLSLTCTVTGYSITSGYSWHWIRQFPGNKLEWMGYIHSSGSTNYNPSLKSRISINRDTSKNQFFLQLNSVTTEDTATYYCAGYDDYFEYWGQGTTLTVSS
VL: DIVMTQSQKFMSTSVGDRVSVTCKASQNVGFNVAWYQQKPGQSPKALIYSASYRYSGVPDRFTGSGSGTDFTLTISNVQSEDLAEYFCQQYNSYPFTFGSGTKLEIK
notes: chimeric, huIgG1/k
- Kd [1]: 5.7 nM
- EC50 (Human full length B7-H3): 1.53 nM
